Source: patent US10500249B2, “Compositions and methods for preventing or treating diseases, conditions, or processes characterized by aberrant fibroblast proliferation and extracellular matrix deposition” (MOERAE MATRIX, INC., priority 2014, dated 2019)

What was measured:
Assay in all cases: Kinase Profiling Assay
Format in all cases: biochemical
Conditions in all cases: 100 μM
[1] = biological target: Abl (H396P) (h) (Homo sapiens, UniProt P00519, H396P)
Procedure, shortened: (§1)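 Scintillation counting quantifies radiolabeled, positively charged substrate retained on a negatively charged filter after kinase reaction with labeled ATP; inhibitor peptide present.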

[2] = biological target: Abl (M351T) (h) (Homo sapiens, UniProt P00519, M351T)
Procedure, shortened: as §1

[3] = biological target: T1, HIPK3 (h) (Homo sapiens, UniProt Q9H422)
T1 construct: purchased Millipore
Procedure, shortened: as §1

[4] = biological target: JNK1α1 (h) (Homo sapiens, UniProt P45983)
Procedure, shortened: as §1

[5] = biological target: Lck (h) (Homo sapiens, UniProt P06239)
Procedure, shortened: as §1

[6] = biological target: T2, MKK7β (h) (Homo sapiens, UniProt O14733)
T2 construct: purchased Millipore
T2 sequence (O14733 1-419): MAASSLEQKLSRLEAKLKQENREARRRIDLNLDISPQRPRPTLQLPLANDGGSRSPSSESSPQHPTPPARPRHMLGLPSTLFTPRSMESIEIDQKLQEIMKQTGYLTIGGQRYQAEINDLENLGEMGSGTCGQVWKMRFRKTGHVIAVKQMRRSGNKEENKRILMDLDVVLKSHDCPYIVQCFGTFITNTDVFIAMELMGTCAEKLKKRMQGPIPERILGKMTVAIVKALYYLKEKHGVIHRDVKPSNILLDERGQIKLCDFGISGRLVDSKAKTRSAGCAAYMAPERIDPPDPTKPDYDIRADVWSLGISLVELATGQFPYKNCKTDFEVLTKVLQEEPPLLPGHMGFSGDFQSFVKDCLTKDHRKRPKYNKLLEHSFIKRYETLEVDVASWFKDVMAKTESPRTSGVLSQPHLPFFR
Procedure, shortened: as §1

[7] = biological target: T3, PAK3 (h) (Homo sapiens, UniProt O75914)
T3 construct: purchased Millipore
Procedure, shortened: as §1

[8] = biological target: T4, JAK3 (h) (Homo sapiens, UniProt P52333)
T4 construct: purchased Millipore
T4 sequence (P52333 1-1124): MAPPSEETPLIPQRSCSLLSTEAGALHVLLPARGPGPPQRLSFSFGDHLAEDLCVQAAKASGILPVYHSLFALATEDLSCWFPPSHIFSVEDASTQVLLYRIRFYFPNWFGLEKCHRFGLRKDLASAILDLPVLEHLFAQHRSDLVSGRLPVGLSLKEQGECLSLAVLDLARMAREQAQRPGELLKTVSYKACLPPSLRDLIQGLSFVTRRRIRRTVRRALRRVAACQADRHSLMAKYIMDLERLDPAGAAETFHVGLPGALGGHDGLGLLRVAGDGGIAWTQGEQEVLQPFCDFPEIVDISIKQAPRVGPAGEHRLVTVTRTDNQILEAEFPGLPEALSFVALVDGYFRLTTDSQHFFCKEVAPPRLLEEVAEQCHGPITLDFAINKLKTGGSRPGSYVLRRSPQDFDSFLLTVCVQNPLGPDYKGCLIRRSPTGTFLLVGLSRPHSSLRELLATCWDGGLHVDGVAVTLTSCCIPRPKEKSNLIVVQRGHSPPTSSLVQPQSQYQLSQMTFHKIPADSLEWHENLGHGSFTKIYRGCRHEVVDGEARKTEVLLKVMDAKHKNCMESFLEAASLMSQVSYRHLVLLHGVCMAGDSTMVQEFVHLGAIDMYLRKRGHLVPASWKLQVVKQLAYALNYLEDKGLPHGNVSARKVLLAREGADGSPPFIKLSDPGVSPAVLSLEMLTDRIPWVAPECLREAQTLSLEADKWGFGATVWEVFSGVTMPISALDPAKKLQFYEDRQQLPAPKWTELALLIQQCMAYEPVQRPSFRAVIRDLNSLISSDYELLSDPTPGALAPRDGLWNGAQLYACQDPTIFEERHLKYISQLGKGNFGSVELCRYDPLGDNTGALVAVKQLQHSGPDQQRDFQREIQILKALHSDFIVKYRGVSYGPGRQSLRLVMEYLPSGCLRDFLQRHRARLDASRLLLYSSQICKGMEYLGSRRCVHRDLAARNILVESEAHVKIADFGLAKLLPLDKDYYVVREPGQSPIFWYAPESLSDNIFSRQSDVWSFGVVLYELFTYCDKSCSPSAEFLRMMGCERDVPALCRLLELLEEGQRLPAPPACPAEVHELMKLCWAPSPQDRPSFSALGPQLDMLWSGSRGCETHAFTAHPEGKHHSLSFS
Procedure, shortened: as §1

[9] = biological target: T5, PAR-1Bα (h) (Homo sapiens, UniProt Q7KZI7)
T5 construct: purchased Millipore
Procedure, shortened: as §1

[10] = biological target: T6, PDGFRα (D842V) (h) (Homo sapiens, UniProt P16234, D842V)
T6 construct: purchased Millipore
Procedure, shortened: as §1

[11] = biological target: T7, PKA (h) (Homo sapiens, UniProt P17612)
T7 construct: purchased Millipore
Procedure, shortened: as §1

[12] = biological target: T8, cKit(V560G) (h) (Homo sapiens, UniProt P10721, V560G)
T8 construct: purchased Millipore
Procedure, shortened: as §1

[13] = biological target: T9, CK2α2 (h) (Homo sapiens, UniProt P19784)
T9 construct: purchased Millipore
Procedure, shortened: as §1

[14] = biological target: T10, GRK5 (h) (Homo sapiens, UniProt P34947)
T10 construct: purchased Millipore
Procedure, shortened: as §1

[15] = biological target: MAPK1 (h) (Homo sapiens, UniProt P27361)
Procedure, shortened: as §1

[16] = biological target: Tie2(R849W) (h) (Homo sapiens, UniProt Q02763, R849W)
Procedure, shortened: as §1

Tie2(R849W) (h), sequence (Q02763 23-1124 R849W): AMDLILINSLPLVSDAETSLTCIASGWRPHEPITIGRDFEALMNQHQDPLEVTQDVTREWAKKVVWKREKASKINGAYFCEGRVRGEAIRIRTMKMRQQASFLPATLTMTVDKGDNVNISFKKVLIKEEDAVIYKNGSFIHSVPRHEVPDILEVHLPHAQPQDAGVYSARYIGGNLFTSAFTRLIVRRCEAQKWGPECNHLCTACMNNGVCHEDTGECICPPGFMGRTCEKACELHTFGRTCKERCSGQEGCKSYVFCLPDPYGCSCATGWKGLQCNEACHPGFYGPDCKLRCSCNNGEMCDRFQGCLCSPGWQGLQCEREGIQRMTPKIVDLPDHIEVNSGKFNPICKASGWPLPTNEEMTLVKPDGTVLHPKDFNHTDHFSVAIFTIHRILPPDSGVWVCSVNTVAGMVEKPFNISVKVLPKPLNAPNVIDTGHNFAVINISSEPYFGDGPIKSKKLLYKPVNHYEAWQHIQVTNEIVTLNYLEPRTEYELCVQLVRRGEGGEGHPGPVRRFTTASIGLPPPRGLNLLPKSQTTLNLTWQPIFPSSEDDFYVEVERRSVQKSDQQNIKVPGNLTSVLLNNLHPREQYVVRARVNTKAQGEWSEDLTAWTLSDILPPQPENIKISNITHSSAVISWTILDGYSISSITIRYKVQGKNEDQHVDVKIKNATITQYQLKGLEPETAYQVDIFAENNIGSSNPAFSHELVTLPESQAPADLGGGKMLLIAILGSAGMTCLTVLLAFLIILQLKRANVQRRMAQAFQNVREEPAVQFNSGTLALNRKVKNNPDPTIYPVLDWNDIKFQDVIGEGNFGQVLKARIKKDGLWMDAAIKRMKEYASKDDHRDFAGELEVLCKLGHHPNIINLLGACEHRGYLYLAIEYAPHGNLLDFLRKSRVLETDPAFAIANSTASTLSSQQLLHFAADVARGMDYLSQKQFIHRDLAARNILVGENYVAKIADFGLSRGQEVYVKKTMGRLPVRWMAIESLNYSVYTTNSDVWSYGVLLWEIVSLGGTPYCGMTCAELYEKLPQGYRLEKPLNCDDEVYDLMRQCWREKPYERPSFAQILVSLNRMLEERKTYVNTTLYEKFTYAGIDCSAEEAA
T3 sequence (O75914 whole entry): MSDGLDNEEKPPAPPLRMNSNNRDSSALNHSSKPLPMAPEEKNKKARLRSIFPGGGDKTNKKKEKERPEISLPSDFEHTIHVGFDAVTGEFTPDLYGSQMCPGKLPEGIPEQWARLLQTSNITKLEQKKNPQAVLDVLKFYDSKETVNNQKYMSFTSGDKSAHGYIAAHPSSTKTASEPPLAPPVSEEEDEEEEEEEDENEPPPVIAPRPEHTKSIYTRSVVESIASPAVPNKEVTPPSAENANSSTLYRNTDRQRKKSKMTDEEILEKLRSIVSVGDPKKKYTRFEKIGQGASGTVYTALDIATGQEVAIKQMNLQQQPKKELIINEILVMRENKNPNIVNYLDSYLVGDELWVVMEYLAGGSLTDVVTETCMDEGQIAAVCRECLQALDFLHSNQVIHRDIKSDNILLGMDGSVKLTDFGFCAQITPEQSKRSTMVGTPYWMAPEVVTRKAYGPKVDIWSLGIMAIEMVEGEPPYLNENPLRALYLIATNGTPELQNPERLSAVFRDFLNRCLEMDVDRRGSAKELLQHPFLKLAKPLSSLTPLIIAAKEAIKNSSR
T6 sequence (P16234 24-1089 D842V): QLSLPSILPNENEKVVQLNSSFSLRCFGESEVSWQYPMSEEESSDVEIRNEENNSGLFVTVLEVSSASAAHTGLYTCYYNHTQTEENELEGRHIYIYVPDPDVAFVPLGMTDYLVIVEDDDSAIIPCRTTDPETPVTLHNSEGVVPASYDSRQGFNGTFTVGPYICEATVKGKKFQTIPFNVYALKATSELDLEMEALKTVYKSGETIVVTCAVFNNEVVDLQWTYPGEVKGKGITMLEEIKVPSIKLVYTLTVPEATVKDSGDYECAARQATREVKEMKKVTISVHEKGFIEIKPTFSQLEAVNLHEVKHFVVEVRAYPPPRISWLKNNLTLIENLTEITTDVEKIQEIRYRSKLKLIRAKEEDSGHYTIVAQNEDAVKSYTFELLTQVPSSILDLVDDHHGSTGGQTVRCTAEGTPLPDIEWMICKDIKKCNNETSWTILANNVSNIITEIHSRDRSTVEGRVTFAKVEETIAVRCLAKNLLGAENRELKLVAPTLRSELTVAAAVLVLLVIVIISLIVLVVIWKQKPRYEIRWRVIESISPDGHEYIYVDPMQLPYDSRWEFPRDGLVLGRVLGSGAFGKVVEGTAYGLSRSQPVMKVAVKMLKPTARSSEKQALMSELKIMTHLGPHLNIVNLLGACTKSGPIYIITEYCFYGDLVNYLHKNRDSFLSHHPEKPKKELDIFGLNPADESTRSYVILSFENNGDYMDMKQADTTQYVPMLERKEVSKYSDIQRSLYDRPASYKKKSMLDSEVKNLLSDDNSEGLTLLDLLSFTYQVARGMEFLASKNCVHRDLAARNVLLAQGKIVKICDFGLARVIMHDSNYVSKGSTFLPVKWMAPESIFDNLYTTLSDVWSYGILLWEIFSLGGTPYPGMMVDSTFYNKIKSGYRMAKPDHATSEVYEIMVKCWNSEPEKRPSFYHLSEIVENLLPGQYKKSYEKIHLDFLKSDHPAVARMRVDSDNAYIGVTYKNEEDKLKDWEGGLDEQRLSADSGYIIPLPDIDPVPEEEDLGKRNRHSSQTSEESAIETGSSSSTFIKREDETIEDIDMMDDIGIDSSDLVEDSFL
MAPK1 (h), sequence (P27361 whole entry): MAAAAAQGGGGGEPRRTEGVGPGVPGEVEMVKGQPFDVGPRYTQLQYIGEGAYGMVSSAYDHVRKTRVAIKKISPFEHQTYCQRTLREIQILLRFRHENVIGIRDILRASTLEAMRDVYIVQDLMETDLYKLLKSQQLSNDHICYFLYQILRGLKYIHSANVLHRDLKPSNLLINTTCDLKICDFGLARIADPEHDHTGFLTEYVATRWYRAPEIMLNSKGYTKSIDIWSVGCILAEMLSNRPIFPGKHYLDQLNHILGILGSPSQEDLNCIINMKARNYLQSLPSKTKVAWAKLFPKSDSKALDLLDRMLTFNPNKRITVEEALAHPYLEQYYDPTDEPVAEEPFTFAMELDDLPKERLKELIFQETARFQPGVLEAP
JNK1α1 (h), sequence (P45983 1-384 isoform P45983-2): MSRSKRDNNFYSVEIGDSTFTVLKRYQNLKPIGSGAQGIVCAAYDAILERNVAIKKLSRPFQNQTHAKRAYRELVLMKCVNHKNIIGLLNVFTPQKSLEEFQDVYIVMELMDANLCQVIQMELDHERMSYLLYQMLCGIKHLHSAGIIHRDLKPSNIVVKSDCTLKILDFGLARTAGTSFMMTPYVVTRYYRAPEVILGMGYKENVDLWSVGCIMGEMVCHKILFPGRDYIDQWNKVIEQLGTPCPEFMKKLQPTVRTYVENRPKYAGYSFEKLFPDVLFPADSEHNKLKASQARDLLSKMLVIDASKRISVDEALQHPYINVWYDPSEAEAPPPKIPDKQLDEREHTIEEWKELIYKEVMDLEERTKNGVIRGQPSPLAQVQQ
Lck (h), sequence (P06239 whole entry): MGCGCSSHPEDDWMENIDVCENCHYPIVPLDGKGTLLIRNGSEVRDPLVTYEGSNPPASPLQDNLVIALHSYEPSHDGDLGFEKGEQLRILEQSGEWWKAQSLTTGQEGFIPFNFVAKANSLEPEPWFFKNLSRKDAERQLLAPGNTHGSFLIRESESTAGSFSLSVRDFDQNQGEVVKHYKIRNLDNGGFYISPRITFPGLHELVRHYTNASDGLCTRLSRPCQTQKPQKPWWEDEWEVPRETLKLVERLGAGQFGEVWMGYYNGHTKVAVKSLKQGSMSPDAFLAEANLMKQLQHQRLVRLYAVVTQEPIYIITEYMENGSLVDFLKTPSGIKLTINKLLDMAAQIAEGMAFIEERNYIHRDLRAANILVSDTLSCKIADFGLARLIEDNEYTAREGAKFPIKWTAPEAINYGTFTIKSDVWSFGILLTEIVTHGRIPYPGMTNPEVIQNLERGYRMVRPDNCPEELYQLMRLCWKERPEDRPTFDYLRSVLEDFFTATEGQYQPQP
T9 sequence (P19784 whole entry): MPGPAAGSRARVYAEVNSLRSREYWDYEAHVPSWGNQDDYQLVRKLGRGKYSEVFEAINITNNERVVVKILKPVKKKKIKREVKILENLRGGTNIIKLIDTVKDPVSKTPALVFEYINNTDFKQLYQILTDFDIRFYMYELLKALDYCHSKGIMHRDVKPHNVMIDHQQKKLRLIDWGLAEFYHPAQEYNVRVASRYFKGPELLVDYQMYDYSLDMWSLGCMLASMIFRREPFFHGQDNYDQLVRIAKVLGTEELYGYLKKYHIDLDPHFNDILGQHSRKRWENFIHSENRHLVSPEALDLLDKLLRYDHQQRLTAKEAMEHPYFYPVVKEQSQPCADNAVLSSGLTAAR
T10 sequence (P34947 whole entry): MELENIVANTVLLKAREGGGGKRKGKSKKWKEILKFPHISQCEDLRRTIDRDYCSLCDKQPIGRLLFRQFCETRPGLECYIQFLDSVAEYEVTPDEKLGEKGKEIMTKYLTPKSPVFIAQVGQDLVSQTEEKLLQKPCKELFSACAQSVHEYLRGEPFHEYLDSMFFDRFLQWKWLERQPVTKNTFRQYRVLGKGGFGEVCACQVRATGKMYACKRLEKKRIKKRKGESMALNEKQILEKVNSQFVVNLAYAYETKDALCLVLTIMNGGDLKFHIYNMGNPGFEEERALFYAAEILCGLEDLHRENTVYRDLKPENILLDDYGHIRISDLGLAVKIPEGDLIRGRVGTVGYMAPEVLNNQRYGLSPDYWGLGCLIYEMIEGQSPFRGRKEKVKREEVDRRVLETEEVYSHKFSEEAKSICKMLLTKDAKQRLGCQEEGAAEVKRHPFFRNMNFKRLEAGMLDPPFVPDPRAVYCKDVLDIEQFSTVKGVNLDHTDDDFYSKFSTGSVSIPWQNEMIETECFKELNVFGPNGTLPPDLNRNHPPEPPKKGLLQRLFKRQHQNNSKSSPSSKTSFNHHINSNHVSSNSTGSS

Sequence	% activity [1]	% activity [2]	% activity [3]	% activity [4]	% activity [5]	% activity [6]	% activity [7]	% activity [8]	% activity [9]	% activity [10]	% activity [11]	% activity [12]	% activity [13]	% activity [14]	% activity [15]	% activity [16]
FAKLAARLYRKALARQLGVAA [MMI-0300]	101%	90%	93%	97%	−2%	100%	140%									
HRRIKAWLKKIKALARQLGVAA (Mammalian) [MMI-0500]	51%	61%	85%		359%			95%	97%	170%	118%	198%				
KAFAKLAARLYRKALARQLGVAA [MMI-0400]				98%		94%		122%		118%		124%	96%	131%	100%	108%
YARAAARQARAKALNRQLGVA (Mammalian) [MMI-0200]							50%		110%		110%		88%	135%	97%	89%
